As a reminder, the stoichiometry N is the number of molecules, sites or subunits per partner or assembly.

From paper doi:10.1101/2024.03.26.586731 come the findings set out here.

Some targets named below: IgG2-DNP-E430G (human); IgG1-DNP-E430G (human); IgG4-DNP-E430G (human); IgG3-DNP-E430G (human).
Common to all, as to experiment: high-speed atomic force microscopy

Take IgG2-DNP-E430G (antibody): in the assay with IgG2-DNP-E430G (human), the stoichiometry N was less than 6. Substance IgG1-DNP-E430G (antibody) registered a stoichiometry N with IgG1-DNP-E430G (human) of less than 6.

Regarding IgG4-DNP-E430G (antibody), the stoichiometry N with IgG4-DNP-E430G (human) is less than 6.

Substance IgG3-DNP-E430G (antibody) yielded a stoichiometry N in the assay with IgG3-DNP-E430G (human) of less than 6.
